# Assay results reported in patent US20110039770A1, “INHIBITORS OF PROTEIN KINASE C ISOFORMS AND USES THEREOF” (PHARMAGAP INC., priority 2005, published 2011).
# Where a SMILES comes first, the peptide text is derived from it. [ ]: non-standard residue; d: D form.
# Experiments:
# PKC-ε = molecular target: T1, PKC-ε (Homo sapiens, UniProt Q02156); experiment: ELISA-based competitive binding assay with purified PKC isoform; set-up: key to Affinity for PKC isoform ε: —: no detectable affinity; Low to very low affinity at 10X or 20X or both PRE concentrations in at least one cell line in the cell extract assay; Low affinity in purified isoform assay.; Moderate affinity at 10X or 20X or both PRE concentrations in at least one cell line in the cell extract assay.; High affinity at 10X or 20X or both PRE concentrations in at least one cell line in the cell extract assay; High affinity in purified isoform assay; details: for Affinity for PKC isoform ε: Purified isoform; for inhibition at 50 µM / inhibition at 100 µM / calculated binding capacity (100-% n, DMSO apparent binding subtracted): purified PKC-ε; for inhibition at 50 µM / inhibition at 100 µM: read-out: calculated binding capacity (100-% n, DMSO apparent binding subtracted)
# T1 sequence (Q02156 1-737): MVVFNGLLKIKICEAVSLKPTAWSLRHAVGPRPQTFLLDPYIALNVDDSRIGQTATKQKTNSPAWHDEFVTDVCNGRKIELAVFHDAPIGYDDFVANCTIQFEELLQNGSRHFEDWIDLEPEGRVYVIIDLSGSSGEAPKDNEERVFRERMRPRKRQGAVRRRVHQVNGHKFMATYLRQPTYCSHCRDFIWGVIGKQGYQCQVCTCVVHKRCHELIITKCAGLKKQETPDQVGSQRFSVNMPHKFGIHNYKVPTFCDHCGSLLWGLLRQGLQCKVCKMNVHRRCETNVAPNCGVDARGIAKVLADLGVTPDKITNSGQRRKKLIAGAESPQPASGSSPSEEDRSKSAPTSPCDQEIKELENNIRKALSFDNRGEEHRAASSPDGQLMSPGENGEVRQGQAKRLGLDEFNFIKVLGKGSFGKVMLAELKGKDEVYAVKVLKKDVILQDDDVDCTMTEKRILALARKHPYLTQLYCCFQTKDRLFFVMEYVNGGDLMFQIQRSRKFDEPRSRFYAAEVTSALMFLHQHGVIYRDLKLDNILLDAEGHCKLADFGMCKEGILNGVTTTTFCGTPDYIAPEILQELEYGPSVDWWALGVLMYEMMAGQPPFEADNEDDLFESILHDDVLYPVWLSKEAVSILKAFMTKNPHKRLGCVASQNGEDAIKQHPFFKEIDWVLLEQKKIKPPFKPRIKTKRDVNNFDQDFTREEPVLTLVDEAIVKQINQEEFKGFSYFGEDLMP
# Method: (§1) Peptides PRE 1, 2, 3, 4, 5, 6, 7, 8, 9, 10, 11, 12 and 13 (see Table 3) were tested for their ability to interfere with binding of PKC isoform-specific antibodies to their target PKC isoforms using a competitive binding assay and purified PKC isoforms.
# (§2) Procedure: Competitive binding was assessed using a 96 well plate ELISA-based assay as described below.
# (§3) Greiner 96 well ELISA plates were coated with the appropriate PKC isoform diluted in PBSN (PBS with Calcium/Magnesium+0.05% Sodium azide w/w). 50 μL/well at 250 ng/mL was used. Control wells contained PBSN only. Plates were incubated overnight at 4° C.
# (§4) The plates were washed 3 times with 200 μL of dH2O per well, then 100 μL of blocking solution was added per well and the plate incubated for 1 h at 37° C. The washing steps with dH2O were repeated and 50 μL of the appropriate PRE solution (PRE stock solution [20 mM in DMSO] diluted in PBSN) was added and the plate incubated for 1 h at room temperature.
# (§5) After incubation, 5 μL of 1.1:400 anti-PKC (isoform specific antibody) was added per well (to provide a final concentration of 1:4000). For PKC-epsilon, 1.1:800 dilution was used and for PKC-zeta a 1.1:100 dilution was used due to high and low binding affinity, respectively. The plates were then incubated 1 h at room temperature, followed by washing with dH2O as described above.
# (§6) 50 μL of 1:1000 dilution of Alkaline Phosphatase (AP) conjugated antibody (anti-rabbit for all except zeta, which was anti-goat) was then added and the plate incubated for 1 h at room temperature. Washing with dH2O was then repeated. Finally, 100 μL of pNPP solution in pNPP buffer (2 mM MgCl2, 100 mM Sodium bicarbonate in water, pH 9.8) was added to all wells and incubated for 8 minutes for α, βI, βII ε, and ζ, or for 15-20 mins for δ (until sufficient coloration is observed). The reaction was stopped by addition of Stop solution (2N NaOH) and the absorbance at 405 nm was read on a Galaxy Plate reader.
# (§7) Controls were PKC without PRE; blank controls, and controls containing the final concentrations of DMSO used for solubilizing the PREs. The non-specific binding capacity related to DMSO was also measured.
# (§8) The antibodies used were as follows: anti-PKC α (Cat. No. SC-208); anti-PKC βI (Cat. No. SC-209); anti-PKC βII (Cat. No. SC-210); anti-PKC δ (Cat. No. SC-213); anti-PKC ε (Cat. No. SC-214); anti-PKC ζ (Cat. No. SC-216-G) (all from Santa Cruz Biotechnology, Inc.). The AP-conjugated antibodies were obtained from Jackson Immuno Research Laboratories (West Grove, Pa.).
# (§9) Calculations: The OD values measured at 405 nm represent the free PKC coated per well.
# (§10) OD405 PKC alone−Blank OD405 of each sample=OD405 coated isoform
# (§11) (OD405 of sample X/OD405 coated isoform)×100=% n that represents the percentage of X binding compared to control.
# (§12) 100-% n measures the relative binding capacity of X towards the tested isoform.
# (§13) The apparent binding capacity of the DMSO samples was then subtracted from X binding capacity.
# (§14) All measurements were made in triplicate and the values in the table represent the averaged calculated binding capacity values after subtraction of the DMSO apparent binding capacity (averaged from 12 values, respectively 10.80, 11.20 and 16.40 corresponding to the concentrations of DMSO used to dilute the […] at 200, 100 and 50 μM respectively). The results allow for quantitative comparison of the binding capacity of each PRE towards an individual isoform within each table, but not among isoforms due to differences in sensitivity of the specific antibodies toward the secondary antibody. This applies particularly to PKC-delta. As noted above, the colour development duration was increased 2-3 times and, as a result, the OD405 measurements may be overestimated for this isoform.
# PKC-βI = PKC-βI (Homo sapiens, UniProt P05771); experiment: as above; set-up: key to Affinity for PKC isoform βI: —: no detectable affinity; Low to very low affinity at 10X or 20X or both PRE concentrations in at least one cell line in the cell extract assay; Low affinity in purified isoform assay.; Moderate affinity at 10X or 20X or both PRE concentrations in at least one cell line in the cell extract assay.; High affinity at 10X or 20X or both PRE concentrations in at least one cell line in the cell extract assay; High affinity in purified isoform assay; details: for Affinity for PKC isoform βI: Purified isoform
# PKC-βI, sequence (P05771 whole entry, canonical isoform): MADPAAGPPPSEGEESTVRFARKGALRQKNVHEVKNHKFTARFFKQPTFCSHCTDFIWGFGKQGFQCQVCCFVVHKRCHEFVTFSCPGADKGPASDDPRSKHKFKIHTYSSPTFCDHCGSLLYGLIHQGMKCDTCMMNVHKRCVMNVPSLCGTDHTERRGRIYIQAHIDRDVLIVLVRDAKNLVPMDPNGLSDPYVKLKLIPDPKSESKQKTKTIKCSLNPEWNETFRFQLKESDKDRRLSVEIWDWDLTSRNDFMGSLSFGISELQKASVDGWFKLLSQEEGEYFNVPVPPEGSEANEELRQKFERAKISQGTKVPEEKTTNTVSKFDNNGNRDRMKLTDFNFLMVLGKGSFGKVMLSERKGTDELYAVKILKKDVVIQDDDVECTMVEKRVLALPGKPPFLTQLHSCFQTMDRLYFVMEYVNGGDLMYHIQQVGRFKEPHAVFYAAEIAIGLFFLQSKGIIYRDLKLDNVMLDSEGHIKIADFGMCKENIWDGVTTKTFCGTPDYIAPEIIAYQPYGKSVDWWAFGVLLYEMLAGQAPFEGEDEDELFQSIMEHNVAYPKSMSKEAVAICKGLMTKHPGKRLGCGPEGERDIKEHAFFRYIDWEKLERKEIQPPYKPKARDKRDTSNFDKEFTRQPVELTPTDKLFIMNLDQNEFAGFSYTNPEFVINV
# Method: as §1, §2, §3, §4, §5, §6, §7, §8, §9, §10, §11, §12, §13, §14
Affinity for PKC isoform ε (PKC-ε),Affinity for PKC isoform βI (PKC-βI),Molecule,further results
L,—,Ac-ISIGILQNADK-NH2 (not fully specified; printed as Ac-ISIGILQNADK-NH2) [PRE 7],"calculated binding capacity (100-% n, DMSO apparent binding subtracted) (PKC-βI; PRE 50 μM, purified PKC-βI): 2.10%"
—,—,Ac-KDAQNLI-NH2 [PRE 12],
—,—,Ac-RDAQNLI-NH2 [PRE 13],
—,—,ILEDKGGDAQNLIGISI [PRE 8],
—,H,RRKKGGKDFVVKR [PRE 1],"calculated binding capacity (100-% n, DMSO apparent binding subtracted) (PKC-ε; PRE 100 μM): 5.47%; calculated binding capacity (100-% n, DMSO apparent binding subtracted) (PKC-ε; PRE 200 μM): 0.83%"

# More lines, now with the values behind:
Molecule,Affinity for PKC isoform ε (PKC-ε),Affinity for PKC isoform βI (PKC-βI),further results
CC[C@H](C)[C@H](NC(=O)[C@H](CO)NC(=O)[C@@H](NC(=O)CNC(=O)[C@@H](NC(=O)[C@H](CC(C)C)NC(=O)[C@H](CC(N)=O)NC(=O)[C@H](CCC(N)=O)NC(=O)[C@H](C)NC(=O)[C@H](CC(=O)O)NC(=O)CNC(=O)CNC(=O)[C@H](CCCCN)NC(=O)[C@@H](NC(=O)[C@H](CCC(=O)O)NC(=O)[C@H](CCC(N)=O)NC(=O)[C@@H](NC(=O)CNC(=O)[C@H](CCCCN)NC(=O)[C@H](C)NC(C)=O)[C@@H](C)CC)C(C)C)[C@@H](C)CC)[C@@H](C)CC)C(N)=O [PRE 3] (Ac-AKGIQEVKGGDAQNLIGISI-NH2),H,H,
"CC[C@H](C)[C@H](NC(=O)[C@H](CO)NC(=O)[C@@H](NC(=O)CNC(=O)[C@@H](NC(=O)[C@H](CC(C)C)NC(=O)[C@H](CC(N)=O)NC(=O)[C@H](CCC(N)=O)NC(=O)[C@H](C)NC(=O)[C@H](CC(=O)O)NC(=O)[C@H](CCCCN)NC(C)=O)[C@@H](C)CC)[C@@H](C)CC)C(N)=O [PRE 4, Ac-KDAQNLIGISI-NH2] (Ac-KDAQNLIGISI-NH2)",—,L,inhibition at 50 µM (PKC-ε; PRE 50 μM): 0%; inhibition at 100 µM (PKC-ε; PRE 100 μM): 0%
CC[C@H](C)[C@H](NC(=O)[C@H](CO)NC(=O)[C@@H](NC(=O)CNC(=O)[C@@H](NC(=O)[C@H](CC(C)C)NC(=O)[C@H](CC(N)=O)NC(=O)[C@H](CCC(N)=O)NC(=O)[C@H](C)NC(=O)[C@H](CC(=O)O)NC(=O)[C@H](CCCCN)NC(=O)CNC(=O)CNC(=O)[C@H](CCCCN)NC(=O)[C@@H](NC(=O)[C@H](CCC(=O)O)NC(=O)[C@H](CCC(N)=O)NC(=O)[C@@H](NC(=O)CNC(=O)[C@H](CCCCN)NC(=O)[C@H](C)NC(C)=O)[C@@H](C)CC)C(C)C)[C@@H](C)CC)[C@@H](C)CC)C(N)=O [PRE 5] (Ac-AKGIQEVKGGKDAQNLIGISI-NH2),—,—,"inhibition at 50 µM (PKC-ε; PRE 50 μM): 0%; inhibition at 100 µM (PKC-ε; PRE 100 μM): 0%; inhibition at 50 µM (PKC-βI; PRE 50 μM, purified PKC-βI, read-out: calculated binding capacity (100-% n, DMSO apparent binding subtracted)): 0%; inhibition at 100 µM (PKC-βI; PRE 100 μM, purified PKC-βI, read-out: calculated binding capacity (100-% n, DMSO apparent binding subtracted)): 0%; inhibition at 200 µM (PKC-βI; PRE 200 μM, purified PKC-βI, read-out: calculated binding capacity (100-% n, DMSO apparent binding subtracted)): 0%"
Ac-ISIGILNQADK-NH2 [PRE 10],—,—,"calculated binding capacity (100-% n, DMSO apparent binding subtracted) (PKC-ε; PRE 50 μM): 0.91%; calculated binding capacity (100-% n, DMSO apparent binding subtracted) (PKC-ε; PRE 200 μM): 1.75%"
Ac-KDANQLIGISI-NH2 [PRE 6],—,L,"calculated binding capacity (100-% n, DMSO apparent binding subtracted) (PKC-ε; PRE 50 μM): 2.61%; calculated binding capacity (100-% n, DMSO apparent binding subtracted) (PKC-ε; PRE 100 μM): 0.46%"
Ac-RDAQNLIGISI-NH2 [PRE 11],L,—,
Ac-isigilqnadk-NH2 (Ac-[dI][dS][dI]G[dI][dL][dQ][dN][dA][dD][dK]-NH2; SMILES CC[C@@H](C)[C@@H](NC(C)=O)C(=O)N[C@H](CO)C(=O)N[C@@H](C(=O)NCC(=O)N[C@@H](C(=O)N[C@H](CC(C)C)C(=O)N[C@H](CCC(N)=O)C(=O)N[C@H](CC(N)=O)C(=O)N[C@H](C)C(=O)N[C@H](CC(=O)O)C(=O)N[C@H](CCCCN)C(N)=O)[C@H](C)CC)[C@H](C)CC) [PRE 9],L,L,"calculated binding capacity (100-% n, DMSO apparent binding subtracted) (PKC-ε; PRE 50 μM): 16.35%; calculated binding capacity (100-% n, DMSO apparent binding subtracted) (PKC-ε; PRE 100 μM): 8.53%; calculated binding capacity (100-% n, DMSO apparent binding subtracted) (PKC-βI; PRE 50 μM, purified PKC-βI): 11.53%; calculated binding capacity (100-% n, DMSO apparent binding subtracted) (PKC-βI; PRE 100 μM, purified PKC-βI): 8.82%; calculated binding capacity (100-% n, DMSO apparent binding subtracted) (PKC-βI; PRE 200 μM, purified PKC-βI): 5.72%"
